In patent US20260167959A1, “APTAZYME-BASED REGULATABLE GENE EXPRESSION SYSTEMS” (REJUVENATE BIO INC, priority 2022, published 2026):

B1: RA210: SEQ ID NO 210; theophylline inducible aptazyme (nucleic acid)
chain: GCTGTCACCGGAATACCAGCATCGTCTTGATGCCCTTGGAAGTCCGGTCTGATGAGTCCAAAAAGGACGAAACAGC
modifications: chemistry not given here
notes: theophylline inducible aptazyme
B2: RA243 (nucleic acid)
DNA: GCGCGTCCTGGATTCGCGGAAACGCGTACATCCAGCCCGGAATACCAGCATCGTCTTGATGCCCTTGGAAGTCCGGTGACGAGTCCCAAATAGGACGAAACGCGC
modifications: expressed or natural sequence
B3: RA244 (nucleic acid)
DNA: GCGCGTCCTGGATTCGCGGAAACGCGTCCGGAATACCAGCATCGTCTTGATGCCCTTGGAAGTCCGGACATCCAGCTGACGAGTCCCAAATAGGACGAAACGCGC
modifications: expressed or natural sequence
B4: RA245 (nucleic acid)
DNA: GGGAATACCAGCATCGTCTTGATGCCCTTGGAAGTCCCGCGTCCTGGATTCGCGGAAACGCGTACATCCAGCTGACGAGTCCCAAATAGGACGAAACGCGC
modifications: expressed or natural sequence
B5: RA246 (nucleic acid)
DNA: GCGCGTCCTGGATTCGCGGAGAATACCAGCATCGTCTTGATGCCCTTGGAAGTCTCGAAACGCGTACATCCAGCTGACGAGTCCCAAATAGGACGAAACGCGC
modifications: expressed or natural sequence
B6: RA247 (nucleic acid)
DNA: GCGCGTCCTGGATTCGCGGAAACGCGTACATCCAGCTGAGGAATACCAGCATCGTCTTGATGCCCTTGGAAGTCCCGAGTCCCAAATAGGACGAAACGCGC
modifications: expressed or natural sequence
B7: RA248 (nucleic acid)
DNA: GCGCGTCCTGGATTCGCGGAAACGCGTACATCCAGCTGACGAGTCCAGTGATACCAGCATCGTCTTGATGCCCTTGGCAGCACTCAAATAGGACGAAACGCGC
modifications: expressed or natural sequence
B8: RA024 (nucleic acid)
DNA: GCGCGTCCTGGATTCGCGGAAACGCGTACATCCAGCTGACGAGTCCCAAATAGGACAGTGATACCAGCATCGTCTTGATGCCCTTGGCAGCACTGAAACGCGC
modifications: expressed or natural sequence
B9: RA249 (nucleic acid)
DNA: GCGCGTCCTGGATTCGCGGAAACGCGTACATCCACCGGAATACCAGCATCGTCTTGATGCCCTTGGAAGTCCGGGCTGACGAGTCCCAAATAGGACGAAACGCGC
modifications: expressed or natural sequence
B10: RA250 (nucleic acid)
DNA: GCGCGAGTGATACCAGCATCGTCTTGATGCCCTTGGCAGCACTTCCTGGATTCGCGGAAACGCGTACATCCAGCTGACGAGTCCCAAATAGGACGAAACGCGC
modifications: expressed or natural sequence

These molecules were tested on GFP (assay: not given). Settings: HEK293-T cells, dual FP plasmid, 24 hours post-transfection.
B1 was tested, and the “Fold-change in GFP expression, presence of theophylline over absence of theophylline” value was 2.55 ×.

The molecules below were run on Renilla luciferase RNA (assay: Barcoded aptazyme variant library screen: un-cleaved Renilla luciferase RNA by barcode read counts, HEK293-T cells). Settings: un-cleaved Renilla luciferase RNA, HEK293-T cells cultured with 1 mM theophylline (ON) over without theophylline (OFF); barcode read counts, triplicate.
Type: cell-based
Method in brief: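 Aptazyme variants (seven theophylline aptamers inserted after each T3H48 ribozyme nucleotide, 9-nt barcoded) cloned into the 3′ UTR of Renilla luciferase in psiCHECK-2; cells cultured ± theophylline, in triplicate. RNA and DNA barcodes amplified and sequenced; normalized read counts gave un-cleaved RNA fraction and ON/OFF fold-change.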
With B1 the “Fold change in RNA expression between the ON state and the OFF state” value (“Fold change” for short) was 1.2 fold.
B2 was tested, and the “Fold change” value was 1.1 fold.
With B3 the “Fold change” value was 1.1 fold.
In the case of B4, the “Fold change” value is reported as 1.1 fold.
B5 was tested, and the “Fold change” value was 1.1 fold.
For B6, the “Fold change” value was 1.1 fold.
With B7 the “Fold change” value was 1.1 fold.
With B8 the “Fold change” value was 2.6 fold.
For B9, the “Fold change” value was 1.1 fold.
For B10, the “Fold change” value was 1.1 fold.
